For one molecule, Kd and koff results are on record in patent US20140206846A1.

Assay [1] addresses T1, human VEGF (human), P15692.
T1 chain: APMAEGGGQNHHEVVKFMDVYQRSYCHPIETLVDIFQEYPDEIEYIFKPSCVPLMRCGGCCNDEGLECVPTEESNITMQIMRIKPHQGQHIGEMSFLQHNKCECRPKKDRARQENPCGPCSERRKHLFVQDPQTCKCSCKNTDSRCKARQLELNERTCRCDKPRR
Put plainly: Biacore SPR, Fab captured by anti-light chain antibody, VEGF as analyte. The conditions noted are these: remark: other sources report otherwise.

Assay [2] has as its target T1, human VEGF (human), P15692. Put plainly: Biacore. The following applies: bispecific antibody; chains VL:VH; remark: other sources report otherwise. On the technique in general: SPR reads the build-up and loss of mass on a sensor chip optically.

B1: VH6L (bispecific antibody, V domains shown)
VL: NIQKTQSPSSLSASVGDRVTITCRALWHISSYLAWYQQKPGKAPKLLIYAASHLHYGVPSRFSGSGSGTDFTLTISSLQPEDFATYYCQQYSGLPYTFGQGTKVEIK
VH: YYQLVESGGGLVQPGGSLRLSCAADGFLFSGYAMSWIRQAPGKGLEWIGQISGSGGSTVYNYNVLGRFTISRDNSKNTLYLQMNSLRAEDTAVYYCARDTGYFDHWGQGTLVTVSS
As to B1, in assay [1], the Kd turned out to be 7.8 nM. Further, in assay [2], the koff came to 0.000738 s⁻¹.

As usually defined, the Kd is the constant that tells how readily two partners part at equilibrium. Lower therefore signals higher affinity. For orientation: koff means a measure of how fast the partners let go of each other. The low end stands for a long-lived complex, the high end for a short-lived complex.
